The subject of the data set is Cc1cc(=O)oc2cc(NC(=O)CNC(=O)CNC(=O)[C@H](CCCNC(=N)N)NC(=O)[C@H](CC(C)C)NC(=O)[C@H](CCCNC(=N)N)NC(=O)OCc3ccccc3)ccc12. The data set can be described thus: purified protein, by the assay type. The note with it: pH 7.5.

On to MERS-PLpro (Betacoronavirus England 1), for which the Michaelis constant (Km) amounted to 142 µM and the kcat/Km came out at 18000 M⁻¹ s⁻¹.

For orientation: Km means the substrate concentration at which the rate is half of its maximum. In general, kcat/Km refers to the turnover number divided by the Michaelis constant.
